Test [1] addresses T1, human Robo 4 FN-like domain 1-Fc (human, UniProt P0DOX5 222-449 = IgG part).
T1 construct: also called fibronectin-like domain 1
The test can be described thus: SPR, IgG captured via anti-human Fab, domain-Fc as analyte. The protocol:
(§1) All surface plasmon resonance (SPR) experiments are performed on a Biacore T100 at 25° C. with HBS-EP as running buffer (0.01 M HEPES pH 7.4, 0.15 M NaCl, 3 mM EDTA, 0.005% Surfactant P20 (Biacore)).
(§2) For determination of the epitope of the four analyzed anti-Robo 4 antibodies, domain variants of human Robo 4 (FN-like domain 1, FN-like domain 2, Ig-like domain 1 and Ig-like domain 2) were used. Anti-Robo 4 antibodies were captured for 60 s at 50 nM on a sensorchip surface with immobilized anti-human Fab specific antibody (GE Healthcare). Domain variants of human Robo 4 were passed at a concentration range of 0.46-1000 nM with a flow of 30 μl/min through the flow cells over 90 s. The dissociation was monitored for 120 s. Bulk refractive index differences were corrected for by subtracting the response obtained on reference flow cell as described above.
A general note: Surface plasmon resonance follows binding to a sensor surface in real time, without labels.

Test [2] addresses T2, human Robo 4 FN-like domain 2-Fc (human, UniProt P0DOX5 222-449 = IgG part).
T2 construct: also called fibronectin-like domain 2
The test is described as above. The protocol: as §1, §2

In test [3] the target is T3, human Robo 4 Ig-like domain 1-Fc (human, UniProt P0DOX5 222-449 = IgG part).
T3 construct: also called IgG-like domain 1
The test is described as above. The protocol: as §1, §2

Test [4] concerns the target T4, human Robo 4 Ig-like domain 2-Fc (human, UniProt P0DOX5 222-449 = IgG part).
T4 construct: also called IgG-like domain 2
Described as above. The protocol: as §1, §2

Test [5] deals with T5, human (hu) Robo 4 extracellular domain (ECD)-precision site (PreS)-Avi-tag (Avi)-6x histidine (His) (human).
T5 construct: it holds the ECD with PreScission site, Avi-tag and His-tag; also called recombinant human Robo 4; human Robo 4
T5 chain: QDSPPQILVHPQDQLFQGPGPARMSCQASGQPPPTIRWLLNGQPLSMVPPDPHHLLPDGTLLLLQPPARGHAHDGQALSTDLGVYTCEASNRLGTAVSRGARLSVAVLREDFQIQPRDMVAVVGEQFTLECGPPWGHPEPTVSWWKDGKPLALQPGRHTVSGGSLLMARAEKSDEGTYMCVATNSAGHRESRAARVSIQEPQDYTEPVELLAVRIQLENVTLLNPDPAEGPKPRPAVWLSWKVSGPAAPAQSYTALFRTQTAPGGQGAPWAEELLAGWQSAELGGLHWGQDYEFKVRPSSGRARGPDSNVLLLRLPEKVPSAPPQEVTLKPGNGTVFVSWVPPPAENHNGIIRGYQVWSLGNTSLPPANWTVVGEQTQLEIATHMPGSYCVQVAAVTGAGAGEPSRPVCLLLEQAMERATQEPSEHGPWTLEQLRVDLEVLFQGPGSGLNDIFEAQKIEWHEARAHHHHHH
The test can be described thus: SPR Biacore T100, IgG captured via anti-human Fab, antigen as analyte (affinity). The protocol:
as §1
(§3) Anti Robo 4 antibodies were captured for 60 s at 50 nM. Recombinant human, murine and cynomolgus Robo 4 were passed at a concentration range from 0.46-1000 nM with a flow of 30 μl/min through the flow cells over 90 s. The dissociation was monitored for 120 s. Bulk refractive index differences were corrected for by subtracting the response obtained on a reference flow cell. Here, the antigens were flown over a surface with immobilized anti-human Fab specific antibody on which HBS-EP has been injected rather than the antibodies.
(§4) Kinetic constants were derived using the Biacore T100 Evaluation Software (vAA, Biacore), to fit rate equations for 1:1 Langmuir binding by numerical integration.

In test [6] the target is T6, murine (mu) Robo 4 ECD-PreS-Avi-His (mouse).
T6 construct: also called recombinant murine Robo 4; murine Robo 4
T6 chain: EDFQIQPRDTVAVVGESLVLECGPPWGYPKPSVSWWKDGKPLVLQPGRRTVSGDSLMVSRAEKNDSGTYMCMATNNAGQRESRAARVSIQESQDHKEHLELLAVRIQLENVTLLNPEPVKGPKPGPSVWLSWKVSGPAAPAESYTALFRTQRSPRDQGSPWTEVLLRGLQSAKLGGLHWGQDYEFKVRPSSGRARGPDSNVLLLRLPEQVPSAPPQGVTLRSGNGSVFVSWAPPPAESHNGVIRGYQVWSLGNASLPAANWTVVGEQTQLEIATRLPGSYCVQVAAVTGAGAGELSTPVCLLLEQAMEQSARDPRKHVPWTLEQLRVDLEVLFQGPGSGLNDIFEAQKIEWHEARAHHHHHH
In words: SPR Biacore T100, IgG captured via anti-human Fab, antigen as analyte. The protocol: as §1, §3, §4

Data on four molecules can be found in US20180282410A1 (Hoffmann-La Roche, published 2018).

What is called Kd is the concentration at which binding is half-saturated. The low end stands for a tighter complex, the high end for a looser complex. A word on the koff: it is the rate constant with which the complex falls apart. A word on the kon: it is the rate constant with which the complex forms.

B1: 01F05 anti-Robo 4 IgG (antibody, V domains shown)
VH: QVQLKQSGAELVKPGASVKISCKTSVYTFTYGYMHWVEQKPGQGLEWIGRIDPDSGNSMYNQKFQGRATLTRDKSSSTVYMELRSLTSEDSAVYYCARSMRYSGYRDYALDLWGQGTQVTVSS
VL: QLVLTQSPSASASLGASVKLTCTLSSQHSSYGITWLQQHPDKAPKYVMYLKSDGSHTKGADIPDRFSGSSSGVHRYLSISNVQPEDEAIYFCVTYDSTHVFGSGTQLTVLG
notes: also called 01F05 IgG
Regarding B1, the binding result in test [1], in test [3] and in test [4] was “no binding (tested: 0.46-1000 nM)” in each case. Moreover, the results for the Kd in test [2] and in test [5] were 30.6 nM and 15.3 nM, respectively. The koff in test [5] worked out at 0.00091 s⁻¹. Moreover, in test [5], the kon is 59600 M⁻¹ s⁻¹.

B2: 01F09 anti-Robo 4 IgG (antibody, V domains shown)
VH: QIQLQESGPGLVKPSQSLSLTCSVTGYSISSGSLWTWIRQFPGNNLEWMGYISYAGGIDYNPSLTSRISITRDTSRNQFFLQLESVTTQDTATYYCATPGGYPFHFDYWGQGTMVTVSS
VL: QPVLTQSPSASASLGASVKLTCTLNSQFSTYNIGWYQQHRDKPPKYVMFVKGDGGHSKADGIPDRFSGSSSGADRYLTISNIQAEDEAIYFCGADYNNAGQYGCVFGSGTHFTVLG
notes: also called 01F09 IgG
As for B2, the binding result in test [1], in test [2] and in test [3] was “no binding (tested: 0.46-1000 nM)” in each case. In addition, the figures for the Kd in test [4] and in test [5] were 55.5 nM and 2.63 nM, respectively. In test [5], this molecule displayed a dissociation rate constant (koff) of 0.00063 s⁻¹. The kon in test [5] turned out to be 241000 M⁻¹ s⁻¹.

B3: 01E06 anti-Robo 4 IgG (antibody, V domains shown)
VH: EVQLVESGGGLSQPGNSLKLSCEASGFTFRNYDMSWVRQAPGKGLEWVAYISSGGGPIYYVDAVKGRFTISRDNAKNLLFLQMNNLRSEDTAVYYCARDLADIGVFDYWGQGTMVTVSS
VL: DFKMTQSPDILSPSLGESVTITCQSSQNIYSNLAWYQQKPGEHPKLLIYTASILADGIPSRFTGSGSGTQFSLKISSLQPDDVANYYCQQYVYYRTFGPGTKLEIK
notes: also called 01E06 IgG
For B3, the binding result in test [1], in test [2] and in test [3] was “no binding (tested: 0.46-1000 nM)” in each case. Also, the values for the Kd in test [4] and in test [5] were 4.9 nM and 0.69 nM, respectively. For the same molecule, in test [5], the koff was 0.00033 s⁻¹. This molecule also showed a kon in test [5] of 479000 M⁻¹ s⁻¹.

B4: 7G2 anti-Robo 4 IgG (antibody, V domains shown)
VH: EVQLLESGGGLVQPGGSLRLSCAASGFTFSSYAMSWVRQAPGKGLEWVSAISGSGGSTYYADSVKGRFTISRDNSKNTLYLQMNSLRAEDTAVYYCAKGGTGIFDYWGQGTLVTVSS
VL: EIVLTQSPGTLSLSPGERATLSCRASQSVSSSYLAWYQQKPGQAPRLLIYGASSRATGIPDRFSGSGSGTDFTLTISRLEPEDFAVYYCQQGQLPPRTFGQGTKVEIK
notes: also called 7G2 IgG
For B4, the binding result was “no binding (tested: 0.46-1000 nM)” in test [1], “no binding (tested: 0.46-1000 nM)” in test [2] and “no binding (tested: antigen 0.46-1000 nM)” in test [6]. The Kd in test [3] came out at 151 nM; in test [4], 66.7 nM; in test [5], 23.4 nM. This molecule came in with a koff in test [5] of 0.00102 s⁻¹. The kon in test [5] was 43800 M⁻¹ s⁻¹.
